Results on three molecules are retold here after US20220153832A1 (PIONYR IMMUNOTHERAPEUTICS, published 2022).

Residue numbers refer to the chain shown, from its start.

Assay [1] addresses T1, N-terminally polyhistidine tagged human MARCO ECD (147-520), recombinant (human, UniProt Q9UEW3 147-520).
T1 construct: also called PI-RG-3000; recombinant human MARCO; not shown: N-terminal polyhistidine tag
T1 sequence: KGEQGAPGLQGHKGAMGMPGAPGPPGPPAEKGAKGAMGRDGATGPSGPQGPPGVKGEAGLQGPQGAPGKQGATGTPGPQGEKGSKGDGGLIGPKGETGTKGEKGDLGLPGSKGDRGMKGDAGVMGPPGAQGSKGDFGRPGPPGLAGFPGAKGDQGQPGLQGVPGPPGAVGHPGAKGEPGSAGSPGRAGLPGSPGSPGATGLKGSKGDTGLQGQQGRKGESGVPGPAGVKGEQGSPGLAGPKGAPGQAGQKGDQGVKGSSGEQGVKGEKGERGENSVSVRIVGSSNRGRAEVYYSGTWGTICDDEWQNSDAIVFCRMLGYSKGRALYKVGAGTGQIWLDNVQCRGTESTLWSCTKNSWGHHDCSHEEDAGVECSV
In words: ELISA on recombinant human MARCO, 0 mM EDTA. The procedure: After the plates were incubated at room temperature for 1 hour or 4° C. overnight, the plates were wash 3 times with ELISA wash buffer (PBS/0.05% TWEEN-20), then hybridoma supernatant (1:5 dilution) or purified antibody (1 ug) was diluted in DPBS/Ca2+/2% FBS, DPBS without Ca2+/2 mM EDTA/2% FBS, DPBS without Ca2+/10 mM EDTA/2% FBS, and DPBS without Ca2+/50 mM EDTA/2% FBS. Plates again were incubated at room temperature for 1 hour.
Background: In an ELISA, binding on a coated surface is turned into a signal by an enzyme label.

The target of assay [2] is T2, Human Macrophage Receptor with Collagenous Structure (MARCO), full length, on cells (human, UniProt Q9UEW3 1-520).
T2 construct: the cell type is named under assay; also called huMARCO; HuMARCO
T2 sequence: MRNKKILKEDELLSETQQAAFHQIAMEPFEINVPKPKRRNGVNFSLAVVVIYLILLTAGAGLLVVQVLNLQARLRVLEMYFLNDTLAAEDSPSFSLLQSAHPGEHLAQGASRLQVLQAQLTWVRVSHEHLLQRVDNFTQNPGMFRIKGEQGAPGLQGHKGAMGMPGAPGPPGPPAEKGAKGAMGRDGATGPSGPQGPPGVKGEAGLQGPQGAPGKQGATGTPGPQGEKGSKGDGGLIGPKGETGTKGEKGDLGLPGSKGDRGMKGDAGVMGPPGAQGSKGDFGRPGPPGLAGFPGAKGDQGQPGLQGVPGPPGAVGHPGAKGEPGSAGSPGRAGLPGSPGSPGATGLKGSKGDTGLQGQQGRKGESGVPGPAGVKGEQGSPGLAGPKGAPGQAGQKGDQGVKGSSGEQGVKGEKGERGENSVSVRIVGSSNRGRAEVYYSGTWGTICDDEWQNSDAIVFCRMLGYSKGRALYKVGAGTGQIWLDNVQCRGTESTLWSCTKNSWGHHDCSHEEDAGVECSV
In words: flow cytometry, 293T (HuMARCO). The method, then:
(§1) Supernatants were removed and cell pellets were resuspended in Ca²⁺+ and Mg²⁺+ Dulbecco's phosphate-buffered saline (D-PBS) at 1×10⁶ cells/ml. 100,000 cells/well were plated onto U-bottom 96-well plates for staining and all centrifugation steps were performed at 1500 rpm at 4° C. for 5 min and samples were kept protected from light throughout the protocol. Cells were pelleted and resuspended in 100 μl of Zombie NIR viability dye (BioLegend) prepared by diluting Zombie NIR dimethyl sulfoxide (DMSO) stock 1000-fold in D-PBS. Cells were stained by incubation for 10 min at room temperature (RT) in the dark, followed by quenching the staining reaction with the addition of 100 μl of Staining Medium (D-PBS containing 2% FBS and 2 mM ethylenediaminetetraacetic acid (EDTA). Cells were pelleted and resuspended in 100 μl of the different antibodies and hybridomas supernatants needed for screening and corresponding isotype controls in freshly prepared staining medium, such as PI-M014 and mIgG2b isotype. All mAbs were tested at the final top concentration of 100 nM (15 μg/ml) followed by an 8-point three-fold serial dilution, including 0 mg/ml control. Staining was carried out for 1 hour (hr) on ice, followed by 2 washes in Staining Medium. Cells were then pelleted and resuspended in 100 μl of allophycocyanin (APC)-conjugated goat anti-mouse IgG (Fc-specific) secondary antibody, prepared by 500-fold dilution of the antibody stocks in Staining Medium, and incubated for 30 min on ice. Plates were then washed two times with Staining Medium, followed by resuspension in 150 μl of the same buffer for acquisition on the flow cytometer (Attune NxT, Life Technologies). Flow cytometry data were analyzed using FlowJo software (version 10.6.1) and data were processed and further analyzed in Microsoft Excel and GraphPad Prism software (version 8). Half-maximal effective concentrations (EC₅₀) were calculated based on geometric mean fluorescence intensities (gMFI). In case when the plates were not able to be analyzed on the cytometer, cells were pelleted after the washes and fixed in 100 μl of 2% paraformaldehyde (PFA), prepared by diluting the 16% (w/v) stock (Thermo Fisher) in DPBS, for 15 min at RT. Cells were then pelleted and the fixative was removed, followed by resuspension in 150 μl of Staining Medium and stored at 4° C. until acquisition on the flow cytometer.
For orientation: Flow cytometry measures light scatter and fluorescence of single cells or particles in a stream.

In assay [3] the target is T3, Cynomolgus MARCO, full length, on cells (cynomolgus, UniProt A0A2K5X0Z2 1-519).
T3 construct: whole, on cells; also called cyno MARCO; CyMARCO
T3 sequence: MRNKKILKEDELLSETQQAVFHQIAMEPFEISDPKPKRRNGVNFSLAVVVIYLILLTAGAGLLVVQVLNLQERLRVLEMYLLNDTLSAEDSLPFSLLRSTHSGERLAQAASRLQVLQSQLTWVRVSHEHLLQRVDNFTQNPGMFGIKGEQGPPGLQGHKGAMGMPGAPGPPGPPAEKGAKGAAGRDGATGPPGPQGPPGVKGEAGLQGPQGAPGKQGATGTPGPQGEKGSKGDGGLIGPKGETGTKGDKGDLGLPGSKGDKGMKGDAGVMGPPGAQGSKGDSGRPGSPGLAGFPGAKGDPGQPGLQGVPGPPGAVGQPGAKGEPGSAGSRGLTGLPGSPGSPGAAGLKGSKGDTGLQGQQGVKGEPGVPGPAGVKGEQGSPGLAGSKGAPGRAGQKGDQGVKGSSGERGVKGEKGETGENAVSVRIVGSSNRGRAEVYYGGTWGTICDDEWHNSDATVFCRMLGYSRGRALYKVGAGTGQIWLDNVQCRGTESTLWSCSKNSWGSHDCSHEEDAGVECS
In words: flow cytometry, 293T (CyMARCO). The procedure: as §1, with “Plates were then washed two times with Staining Medium, followed by resuspension in 150 μl of the same buffer for acquisition on the flow cytometer (Attune NxT, Life Technologies).” left out, “Cells were then pelleted and the fixative was removed, followed by resuspension in 150 μl of Staining Medium and stored at 4° C. until acquisition on the flow cytometer.” left out

B1: PI-HX-3031 (antibody)
heavy: QVQLKESGPGLVQPSQTLSLTCTVSGFSLTSYHVSWVRQPPGKGLEWMGAIWTGGSIAYNSLLKSRLSISRDTSKSQVFLKMNSLQTEDTATYYCARDLSDYYSSYTSFDYWGQGVMVTVSTAETTAPSVYPLAPGTALKSNSMVTLGCLVKGYFPEPVTVTWNSGALSSGVHTFPAVLQSGLYTLTSSVTVPSSTWSSQAVTCNVAHPASSTKVDKKIVPRECNPCGCTGSEVSSVFIFPPKTKDVLTITLTPKVTCVVVDISQNDPEVRFSWFIDDVEVHTAQTHAPEKQSNSTLRSVSELPIVHRDWLNGKTFKCKVNSGAFPAPIEKSISKPEGTPRGPQVYTMAPPKEEMTQSQVSITCMVKGFYPPDIYTEWKMNGQPQENYKNTPPTMDTDGSYFLYSKLNVKKETWQQGNTFTCSVLHEGLHNHHTEKSLSHSP
light: DIQMTQSPASLSTSLGETVSIECLASEGISNDLAWYQQKSGKSPQLLIYAASRLQDGVPSRFSGSGSGTRYSLKISGMQPEDEADYFCQQSYKYPLTFGSGTKLEIKRADAAPTVSIFPPSTEQLATGGASVVCLMNNFYPRDISVKWKIDGTERRDGVLDSVTDQDSKDSTYSMSSTLSLTKADYESHNLYTCEVVHKTSSSPVVKSFNRNEC
notes: Parental rat hybridoma, rat IgG2a
As to B1, the “ELISA signal (A450)” value in assay [1] is 1.37. Moreover, the EC50 (in general, the concentration needed to bring the measured effect to its halfway point) was 0.141 nM in assay [2] and 0.046 nM in assay [3].

B2: PI-HX-3043 (antibody, rat IgG2a)
heavy: QVNLLQSRAALVKPGASVKLSCKASGYTFTDYYLHWVKQSHAKSLEWIGYINPNNAYTSYNEKFKSKATLTVDKSTNTAYMELSRLTSADSATYYCARDTTDYYNLHFAYWGQGTLVTVSSAETTAPSVYPLAPGTALKSNSMVTLGCLVKGYFPEPVTVTWNSGALSSGVHTFPAVLQSGLYTLTSSVTVPSSTWSSQAVTCNVAHPASSTKVDKKIVPRECNPCGCTGSEVSSVFIFPPKTKDVLTITLTPKVTCVVVDISQNDPEVRFSWFIDDVEVHTAQTHAPEKQSNSTLRSVSELPIVHRDWLNGKTFKCKVNSGAFPAPIEKSISKPEGTPRGPQVYTMAPPKEEMTQSQVSITCMVKGFYPPDIYTEWKMNGQPQENYKNTPPTMDTDGSYFLYSKLNVKKETWQQGNTFTCSVLHEGLHNHHTEKSLSHSP
light: B1 light with T13A, A25T, A50D, Q55E, P80T
notes: as for B1
As for B2, the “ELISA signal (A450)” value in assay [1] was 1.2. Besides, the EC50 is 0.438 nM in assay [2] and 0.067 nM in assay [3].

B3: PI-HX-3061 (antibody, rat IgG2a)
heavy: EVQLVESGGGLVQPGSSLKLSCVASKFTFSNYGMNWIRQAPKKGLEWIALIYYNSNNKYYADSVKGRFTISRDNSKNTLYLEMNSLRSEDTAMYYCAKSLTGGSDYFDSWGQGVMVTVSSAETTAPSVYPLAPGTALKSNSMVTLGCLVKGYFPEPVTVTWNSGALSSGVHTFPAVLQSGLYTLTSSVTVPSSTWPSQTVTCNVAHPASSTKVDKKIVPRNCGGDCKPCICTGSEVSSVFIFPPKPKDVLTITLTPKVTCVVVDISQDDPEVHFSWFVDDVEVHTAQTRPPEEQFNSTFRSVSELPILHQDWLNGRTFRCKVTSAAFPSPIEKTISKPEGRTQVPHVYTMSPTKEEMTQNEVSITCMVKGFYPPDIYVEWQMNGQPQENYKNTPPTMDTDGSYFLYSKLNVKKEKWQQGNTFTCSVLHEGLHNHHTEKSLSHSP
light: DVQMTQSPSYLAASPGESVSISCKASKSIGTFLAWYQEKPEKTNKLLIYSGSTLQSGTPSRFSGSGSGTDFTLTIRNLEPEDFAVYYCQQHDEYPFTFGSGTKLEIKRADAAPTVSIFPPSTEQLATGGASVVCLMNNFYPRDISVKWKIDGTERRDGVLDSVTDQDSKDSTYSMSSTLSLTKADYESHNLYTCEVVHKTSSSPVVKSFNRNEC
notes: Parental rat hybridoma, rat IgG2a; cross reactive with human and mouse MARCO
In the case of B3, the EC50 in assay [2] came out at 0.49 nM.
